For this test, the target named is Caulobacter crescentus ScsC with a His tag, without signal sequence (Caulobacter crescentus). As to the kind of experiment: SEC.

For “Caulobacter crescentus ScsC with a His tag, without signal sequence (natural protein)”, the stoichiometry N was determined as 2.

The values are drawn from PMC3322552.
